Kd data for one molecule are collected here from PMC9201380, “Structural Characterization of a Neutralizing Nanobody With Broad Activity Against SARS-CoV-2 Variants” (Frontiers in Microbiology, 2022).

The assay deals with SARS-CoV-2 S receptor-binding domain (residues 330-531), Avi-tagged and biotinylated (SARS-CoV-2, UniProt P0DTC2). As to the kind of experiment: BLI; Octet RED96; biotinylated RBD (2 μg mL^-1) immobilized on SA sensor; DL28 as analyte at 2, 5, 10 and 20 nM; 30°C; 1x PBS, 0.05% Tween 20; association 360 s, dissociation 600 s; 1:1 fit. Conditions: both partners purified. For orientation: BLI is a label-free optical method that tracks binding on a fibre tip over time.

B1: DL28 (monovalent nanobody) (VHH)
VHH: QVQLQESGGGLVQAGGSLRLSCAASGSDFSSSTMGWYRQAPGKQREFVAISSEGSTSYAGSVKGRFTISRDNAKNTVYLQMNSLEPEDTAVYYCNVVDRWYDYWGQGTQVTVSA
notes: also called monovalent DL28
Regarding B1, the affinity, expressed as Kd, was 1.56 nM.

As usually defined, the Kd is the equilibrium constant for the complex coming apart. Low readings indicate tighter binding, high ones weaker binding.
